± gives the uncertainty stated by the source.

A short description of this data set: amyloid nucleation score (Sup35N fusion, yeast selection) (log enrichment); library NNK2; higher = more nucleation; inactive = no reads after selection. The essentials: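 For the nucleation score, DiMSum gave the log enrichment of output over input reads, centred on the mode score of non-aggregating sequences. Psi-negative yeast expressing Sup35N fused to peptides of 20 random codons were induced with 100 μM copper sulfate for 24 hours and grown 7 days at 30°C on medium lacking adenine and uracil. Input and output plasmid inserts were Illumina-sequenced, and sequences with under 100 input reads were excluded.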
IDGYIQGFHGIRLEQLGGVE gave an amyloid nucleation score of 0.152 ± 0.48.

For IDHYLVLASLDW, the amyloid nucleation score is -0.41 ± 0.47.

In turn, IDILWVRVNAFLSVVEIRSN came in with an amyloid nucleation score of 0.949 ± 0.15.

In the case of IDLMKLCFLLYSIGFFLPTH, the amyloid nucleation score result is “inactive”.

Take IDRGTFVLGFYRYKYNYFFK: the amyloid nucleation score entry is “inactive”.

Regarding IDSSGEYIVLRGYMYMRFRL, the amyloid nucleation score was -0.72 ± 0.4.

In the case of IDSYLNTSKASRVPCDLRAL, the amyloid nucleation score worked out at 0.67 ± 0.81.

IEGQGLIVCNGDCTGRPNLR gave an amyloid nucleation score of 1.69 ± 0.39.

For IEGREGCARDNKGYYTALLL, the amyloid nucleation score entry is “inactive”.

In the case of IEVFDIWCPAGFVMEALRFV, the amyloid nucleation score was found to be 4.28 ± 0.099.

IEYRNMLMLSCFNKYMDCLN returned an amyloid nucleation score of 4.45 ± 0.055.

In turn, IFCADMVLNFGGMCPARERA gave an amyloid nucleation score of 0.038 ± 0.8.

For the substance IFCWL, the amyloid nucleation score worked out at 3.51 ± 0.047.

On to IFDQVNSRYRYAVGYGKW, for which the amyloid nucleation score result is “inactive”.

For the substance IFNVKRGILVTSVFDNVQVW, the amyloid nucleation score entry is “inactive”.

Consider IFNVRRVLHFIIYVSDIPLD, for which the amyloid nucleation score was -1.89 ± 0.78.

IFNWECMDAFFSLK: the amyloid nucleation score entry was “inactive”.

As to IFPEL, the amyloid nucleation score is -1.11 ± 0.45.

As to IFSEGSTSSGSFGTKL, the amyloid nucleation score is -1.6 ± 0.61.

IFVGVNCIQKISKRYGWYLC displayed an amyloid nucleation score of 0.214 ± 0.77.

With IFVNILNWLSVVRSSGFGSV, the amyloid nucleation score entry was “inactive”.

IFWVVEFWIYYTSFLSWETR yielded an amyloid nucleation score of 0.455 ± 0.51.

In the case of IFYKPVFSLFVIGSRMNGGI, the amyloid nucleation score was 7.29 ± 0.054.

In turn, IGESLRYIRRVILSMIFHLA yielded an amyloid nucleation score of 1.18 ± 0.66.

In the case of IGIAKYLREGRSSPTESL, the amyloid nucleation score was -0.5 ± 0.33.

On to IGISYCSRRVIFHGTRKTHS, for which the amyloid nucleation score was -0.034 ± 0.28.

IGLHVWHLSLKGSSDLSGTV: the amyloid nucleation score came to 1.85 ± 0.12.

Take IGLYGNANPMTGVHSHLLCG: the amyloid nucleation score was -0.088 ± 0.54.

The substance IGMCLILRNPYIVLSDRWSS yielded an amyloid nucleation score of 0.308 ± 0.39.

In turn, IGMSHRSQACESFKVKCPTY returned an amyloid nucleation score of 1.66 ± 0.2.

IGTGLDADTSM: the amyloid nucleation score stood at 1.44 ± 0.16.

The substance IGTNSGAINSVSHGLLAGYG displayed an amyloid nucleation score of 1.24 ± 0.47.

Substance IGVLISVGNLSYSTYSSRFI had an amyloid nucleation score of 5.87 ± 0.062.

Regarding IHCRCVADCSRS, the amyloid nucleation score is -0.097 ± 0.76.

Consider IHDELSRCRC, for which the amyloid nucleation score is -0.611 ± 0.63.

As for IHRGFILADTLHHYCSGLLI, the amyloid nucleation score was -0.199 ± 0.65.

On to IHSSVGYMKTVPKLDDS, for which the amyloid nucleation score was 0.207 ± 0.34.

Regarding IHWNKIMRFTFKYGILLYPS, the amyloid nucleation score was -0.525 ± 1.1.

For IIDNYNYMF, the amyloid nucleation score was -0.963 ± 1.1.

On to IIEPYVHGVWKFHRFYLKSA, for which the amyloid nucleation score is -0.701 ± 0.55.

In the case of IIHSLARFIC, the amyloid nucleation score was -0.594 ± 0.26.

As for IIHTWLWTHRSIR, the amyloid nucleation score was -0.406 ± 0.5.

Take IIIIATEHK: the amyloid nucleation score is 3.48 ± 0.16.

IIKLRFFWYYNLLNQYLGFR: the amyloid nucleation score result was “inactive”.

On to IIMLYEYHLITGTMNAMHRV, for which the amyloid nucleation score entry was “inactive”.

In turn, IINSANM yielded an amyloid nucleation score of 0.736 ± 0.74.

For the substance IIPCRSLFAFNMMVM, the amyloid nucleation score came out at 0.288 ± 0.53.

Regarding IIRTTSNRPTPLRCSPNLSM, the amyloid nucleation score was -0.779 ± 0.33.

Turning to IISYEVWSPQQGDLNSHHCL, the amyloid nucleation score result was “inactive”.

In the case of IITMLGQEWAFGKLFDPLTL, the amyloid nucleation score was 0.524 ± 0.34.

For the substance IIVFV, the amyloid nucleation score is 0.086 ± 0.74.

The substance IIYYWAPLVITMEFQERRVR showed an amyloid nucleation score of 6.395 ± 0.038.

Regarding IKCKKKYRSYWNRG, the amyloid nucleation score is -0.27 ± 0.46.

Substance IKDMTKVIATGFCLCITLVC gave an amyloid nucleation score of 0.592 ± 0.66.

Consider IKERGLCRWMYARFKGKSAI, for which the amyloid nucleation score entry was “inactive”.

For IKHDLSTFNNFSPVSWNMVY, the amyloid nucleation score was -0.307 ± 0.79.

As to IKNSRNVLLMPLLANHWHNS, the amyloid nucleation score is -0.58 ± 0.63.

Take IKVNCIEYYHSLRSRFDTSA: the amyloid nucleation score came out at 0.065 ± 1.1.

IKVYSTVYQVSCLLRLMLLM: the amyloid nucleation score is -1.24 ± 0.64.

Consider ILANCGCCSNFSFYQMGEKY, for which the amyloid nucleation score was 8.279 ± 0.047.

Regarding ILFLVNLFSLSIANVFR, the amyloid nucleation score result was “inactive”.

With ILGVRYVSCSGSLGNWAQRG, the amyloid nucleation score was found to be 4.87 ± 0.098.

Take ILIIRLKFLVIVAITSTGSD: the amyloid nucleation score result is “inactive”.

For the substance ILIKIKRWSFRFPFGFGKLD, the amyloid nucleation score result is “inactive”.

For the substance ILILVLIECLILWFCYTMCI, the amyloid nucleation score amounted to 3.16 ± 0.049.

As for ILLINCMFNQYSGC, the amyloid nucleation score was determined as 7.894 ± 0.075.

In the case of ILLISVCYRNIVYISSSLMG, the amyloid nucleation score is -0.172 ± 0.21.

As for ILLRMTITCMFTPYHAERRG, the amyloid nucleation score was found to be 4.61 ± 0.07.

ILLVYTLHRCLSSRVNEYQM had an amyloid nucleation score of 4.22 ± 0.052.

In turn, ILNCVMYLICKYVFII showed an amyloid nucleation score of 2.16 ± 0.14.

ILRECFIFSHRKTHLLKFWL: the amyloid nucleation score was -0.622 ± 1.1.

ILRFEAIYFEIMPHVYKVVK: the amyloid nucleation score was -0.409 ± 0.38.

For the substance ILRVSGDAERSILFCPCLAI, the amyloid nucleation score was -0.255 ± 0.25.

ILRYSFCRMLFAPRVTLIRF displayed an amyloid nucleation score of 1.74 ± 0.25.

Take ILSCRYHNYSQQLVK: the amyloid nucleation score entry was “inactive”.

For ILSLIYGA, the amyloid nucleation score was -0.084 ± 0.54.

Substance ILTWVAHILLP had an amyloid nucleation score of 3.72 ± 0.072.

ILVMKFNSWLADEDRVRSVI: the amyloid nucleation score was determined as 1.21 ± 0.27.

As to ILWNYIYDKSFGITPDGFV, the amyloid nucleation score was -0.398 ± 1.

For the substance ILYGGSPSLYVYAYTKN, the amyloid nucleation score was found to be 4.35 ± 0.11.

For ILYVACSNMRCPILFMAGA, the amyloid nucleation score amounted to 2.12 ± 0.12.

IMEYAPLYFIMF yielded an amyloid nucleation score of 4.16 ± 0.069.

In the case of IMVRVIAFNVL, the amyloid nucleation score amounted to 6.864 ± 0.041.

Substance INCRFMVCWA gave an amyloid nucleation score of 9 ± 0.052.

In turn, INCSAFNHCIYSSPT returned an amyloid nucleation score of 2.82 ± 0.082.

Turning to INGWEPSIIDVIYNAHQIGP, the amyloid nucleation score is 0.107 ± 0.79.

In turn, INLNNFLVLLLCKHRVVWKQ returned an amyloid nucleation score of 1.48 ± 0.2.

Turning to INLYRSVGPKKWYTGEVLMA, the amyloid nucleation score was -0.137 ± 1.1.

Take INSPSYDNILMSTSSANMKR: the amyloid nucleation score result was “inactive”.

For INSVFNGIGRVYRHW, the amyloid nucleation score is -0.554 ± 1.

As for INVFGGHLMSYMKSISRVVC, the amyloid nucleation score is -1.13 ± 0.64.

In the case of INWSHRGIISLDERMIIQYV, the amyloid nucleation score was determined as 0.154 ± 0.65.

IPCTTSCVVQFCVTYWLDN: the amyloid nucleation score was determined as 6.419 ± 0.029.

Take IPFLAVACLGDQWDD: the amyloid nucleation score was 0.304 ± 0.18.

IPGSS: the amyloid nucleation score is -0.137 ± 0.54.

In turn, IPMHPLCGVRRNTELRVVEW showed an amyloid nucleation score of 1.78 ± 0.25.

Substance IPNYLSYTWILYNYTFLGAC returned an amyloid nucleation score of 0.719 ± 0.38.

IPSRAVVPFFLDLRPHADVS displayed an amyloid nucleation score of 0.25 ± 0.46.

Consider IQEVRVACCWLIFRGCIRTA, for which the amyloid nucleation score turned out to be 4.1 ± 0.12.

In turn, IQINLLNSGYSFRLRASKFS registered an amyloid nucleation score of 2.89 ± 0.075.

Take IQSNAQESHNSNICESYNND: the amyloid nucleation score is -1.02 ± 0.62.

As to IQTNVYWGISCCVSLSLSGL, the amyloid nucleation score amounted to 9.549 ± 0.022.

Turning to IQVLVLPISYISIRGQKWRN, the amyloid nucleation score stood at 7.19 ± 0.08.

As for IRCCVQFIQLSQGNNVWVRS, the amyloid nucleation score worked out at 6.07 ± 0.081.

Turning to IRDFYILAYRWLSQSHVMAN, the amyloid nucleation score entry was “inactive”.

Regarding IRESGVYTNLYSVVRVEEKT, the amyloid nucleation score stood at 0.012 ± 0.38.

IRFDFSC showed an amyloid nucleation score of 1.51 ± 0.17.

Consider IRLLCHAVENCGTQRRLWGL, for which the amyloid nucleation score worked out at 0.329 ± 0.6.

For the substance IRLVHSNVEIWGSDLVFHRG, the amyloid nucleation score came to 6.196 ± 0.04.

IRMEFCDAMTICLLKQR gave an amyloid nucleation score of 3.72 ± 0.056.

The substance IRNQWMQVSQVFSVSRAVET registered an amyloid nucleation score of 0.369 ± 0.3.

Regarding IRRGTYNFLMFQKDSFEYVS, the amyloid nucleation score was found to be 0.536 ± 0.62.

As to IRSFVSIRMFVCGRSDLRSN, the amyloid nucleation score is -0.22 ± 1.1.

Substance IRWCF gave an amyloid nucleation score of 5.34 ± 0.09.

For ISCSKMRRFWHL, the amyloid nucleation score stood at 0.587 ± 0.29.

In turn, ISERKCCKVLYISAIRVLNF gave an amyloid nucleation score of 0.034 ± 1.1.

As to ISFWGFYRFRYDMCRRVSDR, the amyloid nucleation score is -1.34 ± 0.78.

For ISGSRWRLGAIVGTVVEAFG, the amyloid nucleation score was -0.049 ± 0.76.

As for ISINTICSNVDIGYGVAVFH, the amyloid nucleation score was found to be 3.92 ± 0.071.

The substance ISIVPYYNLGIGGRVTGSEA came in with an amyloid nucleation score of 0.012 ± 0.3.

With ISLNLVVN, the amyloid nucleation score is -0.272 ± 0.8.

For ISLSHWGQTIPLRSFLLNRL, the amyloid nucleation score is 0.432 ± 0.53.

ISSEHNAWYEVA: the amyloid nucleation score result is “inactive”.

Turning to ISTYSMYACFKMSL, the amyloid nucleation score came to 4.88 ± 0.1.

For ISVGGLSHMGTVGSLMKVTQ, the amyloid nucleation score was -0.023 ± 0.29.

The substance ISVRPAQSASRPCLDLWLKA gave an amyloid nucleation score of 1.55 ± 0.36.

For the substance ISWTPSGAIVVS, the amyloid nucleation score entry was “inactive”.

Turning to ISWVLRCQSKSRWLIQ, the amyloid nucleation score is 0.627 ± 0.57.

In turn, ITACCRSR gave an amyloid nucleation score of 3.02 ± 0.062.

In the case of ITDGLYLTWGFDP, the amyloid nucleation score stood at 0.931 ± 0.74.

On to ITFFLRDMIAC, for which the amyloid nucleation score is -0.907 ± 1.

Regarding ITGKTGVCSNNYTLKILGIV, the amyloid nucleation score was -0.826 ± 0.33.

Substance ITIFTSWPVIMLETVMCYCN came in with an amyloid nucleation score of 5.32 ± 0.079.

In turn, ITMSQNSWNFRHDGTLVGLK displayed an amyloid nucleation score of 0.377 ± 0.3.

On to ITPFHT, for which the amyloid nucleation score is -0.448 ± 0.3.

In the case of ITQRHSVNLNMMSLDLYTSS, the amyloid nucleation score turned out to be 0.295 ± 1.

Substance ITRSGWDFYLS yielded an amyloid nucleation score of 0.687 ± 0.49.

The values above are taken from the supplement of paper PMC12042874.
